In PMC9226200:
Where “and” joins values, the source holds several entries; their conditions need not be identical. Equal values may be shown once.

Molecular target: PKM2 (mouse (endogenous in splenic B cells of C57BL/6J mice)) (UniProt P52480)
Assay: cross-linking; lysates of purified CD19+ splenic B cells from C57BL/6J mice cultured with or without Hcy (100 μmol/L) for 24 h, cross-linked with glutaraldehyde; Western blot for PKM2 oligomer states

Sequence of PKM2, P52480 1-531 (enzyme; other documents disagree on this pair) (P52480 whole entry): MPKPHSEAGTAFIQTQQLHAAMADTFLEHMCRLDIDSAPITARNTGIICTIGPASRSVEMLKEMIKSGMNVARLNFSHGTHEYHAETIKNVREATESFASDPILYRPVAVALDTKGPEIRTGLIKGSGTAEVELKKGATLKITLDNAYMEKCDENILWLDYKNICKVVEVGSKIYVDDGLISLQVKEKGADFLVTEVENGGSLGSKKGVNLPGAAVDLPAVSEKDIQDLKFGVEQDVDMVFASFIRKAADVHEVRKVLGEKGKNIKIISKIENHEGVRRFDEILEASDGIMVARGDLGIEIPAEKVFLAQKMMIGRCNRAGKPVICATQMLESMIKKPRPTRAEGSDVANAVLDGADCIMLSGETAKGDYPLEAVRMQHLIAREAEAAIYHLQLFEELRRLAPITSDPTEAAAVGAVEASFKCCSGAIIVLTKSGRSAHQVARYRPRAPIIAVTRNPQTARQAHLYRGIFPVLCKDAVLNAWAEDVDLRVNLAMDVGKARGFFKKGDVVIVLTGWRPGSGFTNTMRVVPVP

## PKM2, P52480 1-531 (enzyme; other documents disagree on this pair)
  stoichiometry N: 4 and 2
